{"source": "patent US20160369006A1", "about": "(published 2016)", "binders": {"B1": {"name": "ESK1 wildtype IgG1 (antibody, V domains shown)", "VH": "QMQLVQSGAEVKEPGESLRISCKGSGYSFTNFWISWVRQMPGKGLEWMGRVDPGYSYSTYSPSFQGHVTISADKSTSTAYLQWNSLKASDTAMYYCARVQYSGYYDWFDPWGQGTLVTVSS", "VL": "not shown"}}, "molecular_target": "WT1 peptide … presented by HLA-A0201 (human;)", "test": "125I-labeled antibody saturation cell binding; JMN cells", "data": [{"binder": "B1", "values": [{"measurement": "Kd", "result": 0.2, "unit": "nM"}]}]}
